Laboratory results published in patent US20250243287A1 (SHENGHE CHINA BIOPHARMACEUTICAL, published 2025).
Changes are numbered by the printed parent chain.

B1: Hu-15-Z6 (antibody, V domains shown)
VH: EVQLVESGGGLVQPGGSLRLSCAASGFTFNTNAMNWVRQAPGKGLEWVGRIRTKSNNYATYYAESVRDRFTISRDDSKNSLYLQMNSLKTEDTAMYYCVRGGYGIRGDYTMDYWGQGTLVTVSS
VL: DIVMTQSPPTLSLSPGERATLSCRSSKSLLHSNGNTYLYWFQQKPGQSPQLLIYRMSNLASGIPDRFSGSGSGTDFTLTISRLEPEDFAVYYCMQHLEYPFTFGQGTKLEIK
notes: Humanized from CH-15; also called humanized antibody Hu-15-Z6
B2: Hu-15-Z8 (antibody, V domains shown)
VH: B1 VH
VL: B1 VL with G34A
notes: Humanized from CH-15; also called humanized antibody Hu-15-Z8
B3: Hu-15-Z5 (antibody, V domains shown)
VH: B1 VH
VL: B1 VL with D1E, P9G, Q50R
notes: Humanized from CH-15; also called humanized antibody Hu-15-Z5
B4: Hu-15-Z2 (antibody, V domains shown)
VH: B1 VH with M95V, V99A
VL: B1 VL with D1E, P9G, Q50R
notes: Humanized from CH-15; also called humanized antibody Hu-15-Z2
B5: Hu-15-Z1 (antibody, V domains shown)
VH: B1 VH with M95V, V99A
VL: B1 VL with D1E, M4L, P9G, F41Y, S48A, Q50R
notes: Humanized from CH-15; made by the aforementioned method (human IgG framework); also called humanized antibody Hu-15-Z1
B6: Hu-15-Z4 (antibody, V domains shown)
VH: B1 VH
VL: B1 VL with D1E, M4L, P9G, F41Y, S48A, Q50R
notes: Humanized from CH-15; also called humanized antibody Hu-15-Z4
B7: Hu-15-Z9 (antibody, V domains shown)
VH: B1 VH with D108E
VL: B1 VL
notes: Humanized from CH-15; also called humanized antibody Hu-15-Z9
B8: Hu-15-Z3 (antibody, V domains shown)
VH: B1 VH with M95V, V99A
VL: B1 VL
notes: Humanized from CH-15; also called humanized antibody Hu-15-Z3
B9: Hu-15-Z7 (antibody, V domains shown)
VH: B1 VH
VL: B1 VL with N33Q
notes: Humanized from CH-15; also called humanized antibody Hu-15-Z7
B10: Hu-15-Z10 (antibody, V domains shown)
VH: B1 VH with G107A
VL: B1 VL
notes: Humanized from CH-15; also called humanized antibody Hu-15-Z10
B11: Hu-2-Z5 (antibody, V domains shown)
VH: QVQLVQSGAEVKKPGASVKVSCKASGYTFTDYEMHWVRQAPGQGLEWMGAIDPETGATAYNQKFKGRVTLTADTSISTAYMELSRLRSDDTVVYYCASRAGGRGRFAYWGQGTLVTVSS
VL: EVVMTQSPGTLSLSPGERATLSCRSSQSLVHSSGNTYLHWYQQKPGQSPRLLIYKVSNRFSGIPDRFSGSGSGTDFTLTISRLEPEDFAVYFCSQTTHVPYTFGGGTKLELK
notes: Humanized from CH-2; also called humanized antibody Hu-2-Z5
B12: Hu-2-Z1 (antibody, V domains shown)
VH: B11 VH with L70S, A72R, S98R
VL: B11 VL with V2I, M4L, S48A, F92Y
notes: Humanized from CH-2; made by the aforementioned method (human IgG framework); also called humanized antibody Hu-2-Z1
B13: Hu-2-Z6 (antibody, V domains shown)
VH: B11 VH
VL: B11 VL with E1D, G9L, R50K
notes: Humanized from CH-2; also called humanized antibody Hu-2-Z6
B14: Hu-2-Z9 (antibody, V domains shown)
VH: B11 VH with A97K
VL: B11 VL with E1D, G9L, R50K
notes: Humanized from CH-2; also called humanized antibody Hu-2-Z9
B15: Hu-2-Z4 (antibody, V domains shown)
VH: B11 VH
VL: B11 VL with V2I, M4L, S48A, F92Y
notes: Humanized from CH-2; also called humanized antibody Hu-2-Z4
B16: Hu-2-Z10 (antibody, V domains shown)
VH: B11 VH with G42V, Q43R, A97K
VL: B11 VL with V2I, M4L, S48A, F92Y
notes: Humanized from CH-2; also called humanized antibody Hu-2-Z10
B17: Hu-2-Z12 (antibody, V domains shown)
VH: B11 VH with G42V, Q43R, A97K
VL: B11 VL with E1D, G9L, R50K
notes: Humanized from CH-2; also called humanized antibody Hu-2-Z12
B18: Hu-2-Z3 (antibody, V domains shown)
VH: B11 VH with L70S, A72R, S98R
VL: B11 VL with E1D, G9L, R50K
notes: Humanized from CH-2; also called humanized antibody Hu-2-Z3
B19: Hu-2-Z7 (antibody, V domains shown)
VH: B11 VH with A97K
VL: B11 VL with V2I, M4L, S48A, F92Y
notes: Humanized from CH-2; also called humanized antibody Hu-2-Z7
B20: Hu-2-Z11 (antibody, V domains shown)
VH: B11 VH with G42V, Q43R, A97K
VL: B11 VL
notes: Humanized from CH-2; also called humanized antibody Hu-2-Z11
B21: Hu-2-Z8 (antibody, V domains shown)
VH: B11 VH with A97K
VL: B11 VL
notes: Humanized from CH-2; also called humanized antibody Hu-2-Z8
B22: Hu-2-Z2 (antibody, V domains shown)
VH: B11 VH with L70S, A72R, S98R
VL: B11 VL
notes: Humanized from CH-2; also called humanized antibody Hu-2-Z2
B23: Ms-2 (antibody, V domains shown)
VH: QVQLQQSGAELARPGASVTLSCKASGYTFTDYEMHWVKQTPVRGLEWIGAIDPETGATAYNQKFKGKATLTADKSSNTAYMELRRLTSEDSAVYYCKSRAGGRGRFAYWGQGTLVTVSA
VL: DVVMTQTPLSLPVRLGDQASISCRSSQSLVHSSGNTYLHWYLQKSGQSPKLLIYKVSNRFSGVPDRFSGSGSGTDFTLKISRVEAEDLGVYFCSQTTHVPYTFGGGTKLEIK
notes: Mouse hybridoma antibody; also called mouse-derived anti-CCR8 antibody Ms-2
B24: Ms-8 (antibody, V domains shown)
VH: EVQLVETGGGLVQPKGSLKLSCAASGFTFNTYAMNWVRQTPEKGLEWVARIRTKSNNYATSYADSVKDRFTISRYDSQNMLYLQMNNLKTEDTAMYYCVRGGYGIRGDYAMDYWGQGTSVTVSS
VL: DIVMTQAAPSVPVTPGESVSISCRSTKSLLHSNGNTYLYWFLQRPGQSPQLLIYRMSNLASGVPDRFSGSGSGTTFTLRISRVEAEDVGVYYCMQHLEYPFTFGSGTKLEIK
notes: Mouse hybridoma antibody; also called mouse-derived anti-CCR8 antibody Ms-8
B25: chimeric antibody CH-2 (antibody, V domains shown)
VH: B23 VH
VL: B23 VL
notes: Variable domains of Ms-2 in a human IgG framework, expressed in CHO cells
B26: Ms-1 (antibody, V domains shown)
VH: QVQLQQSGAELVRPGASVTLSCKASGYTFTAYEMHWVRQTPVNGLEWIGAIDPKTGVTAYNQKFKDKAIMTADKYSSTAYMDLRSLTSEDSAVYYCTSRAGGRGRFAYWGQGTLVTVSA
VL: B23 VL with R14S, G34A, S45P, L51V, V90L, T96S, Y101F
notes: Mouse hybridoma antibody; also called mouse-derived anti-CCR8 antibody Ms-1
B27: Ms-15 (antibody, V domains shown)
VH: B24 VH with Y32N, T40A, E42G, A49G, S61Y, K67R, N79G, A110T
VL: B24 VL with T26S, T75A
notes: Mouse hybridoma antibody; also called mouse-derived anti-CCR8 antibody Ms-15

target: T1, human CCR8 (chemokine (C-C motif) receptor 8) (human, UniProt P51685 1-355); test: flow cytometry on CHOK1-CCR8 cells, steps of Example 6
T1 construct: whole, on cells; also called CCR8-CHO-K1 cells; CHOK1-CCR8 cells
T1 sequence (P51685 whole entry): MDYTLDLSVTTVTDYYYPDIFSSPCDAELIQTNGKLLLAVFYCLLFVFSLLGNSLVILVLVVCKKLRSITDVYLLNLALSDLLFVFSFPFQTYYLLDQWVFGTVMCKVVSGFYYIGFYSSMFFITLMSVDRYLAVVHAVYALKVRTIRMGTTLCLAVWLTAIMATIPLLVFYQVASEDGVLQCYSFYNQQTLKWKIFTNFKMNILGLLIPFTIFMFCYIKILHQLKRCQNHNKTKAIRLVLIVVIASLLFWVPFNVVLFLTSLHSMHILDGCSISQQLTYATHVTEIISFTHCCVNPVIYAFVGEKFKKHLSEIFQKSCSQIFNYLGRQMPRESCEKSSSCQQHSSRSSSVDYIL

Binding result, binds:
B1, B2, B3, B4, B5, B6, B7, B8, B9, B10, B11, B12, B13, B14, B15, B16, B17, B18, B19, B20, B21, B22

target: T1, human CCR8 (chemokine (C-C motif) …); test: flow cytometry on CCR8-CHO cells
Procedure: (§1) The antibody to be tested was taken as the initial concentration of 50 μg/mL and diluted 5-fold with 6 gradients. The cells CCR8-CHO-K1 in the incubator were taken out, and the cell suspension was transferred to a 15 mL centrifuge tube, centrifuged, and counted by resuspension in PBS. A blank control group (Blank), a negative control group (NC), an experimental group, a positive control group (positive control BMK derived from the 1K17 sequence of US20210277129) and the irrelevant antibody group were kept. The cell suspension was spread in a 96-well plate according to about 3×10⁵ cells/well. Centrifugation (1000 rpm, 5 min) was performed, followed by washing with PBS, re-centrifugation, and repeated twice to remove media residues. The supernatant was discarded, 100 μL of primary antibody solution and irrelevant antibody solution were added to the experimental group and irrelevant antibody group, respectively, and the cells were resuspended and incubated at room temperature for 1 h. The blank group, and the negative control group were incubated with an equal amount of PBS.
(§2) After 1 h, PBS was added to wash twice. […] After the supernatant was discarded, 120 μL of PBS was added to resuspend and sequentially flow cytometry was performed to detect the mean fluorescence intensity. […]

Binding result, binds:
B23, B24

target: T1, human CCR8 (chemokine (C-C motif) …); test: flow cytometry on CCR8-CHO-K1 cells, PE anti-human IgG Fc secondary
Procedure: as §1, with “The supernatant was discarded, 100 μL of primary antibody solution and irrelevant antibody solution were added to the experimental group and irrelevant antibody group, respectively, and the cells were resuspended and incubated at room temperature for 1 h. The blank group, and the negative control group were incubated with an equal amount of PBS.” left out
as §2
The binding activity of the chimeric antibodies was detected by FACs method, the secondary antibody was PE F(ab′) 2 sheep anti-human IgG Fc (Biolegend, Cat: 398004), and the assay procedure was the same as Example 6, and the results are shown in FIG. 2.

Binding result, binds:
B25

target: T1, human CCR8 (chemokine (C-C motif) …); test: flow cytometry on CCR8-CHO-K1 cells
Procedure: as §1, §2

Binding result, binds:
B26, B27
